Measured values from patent US20260069707A1, “COMBINATION THERAPY WITH ANTIBODY-DRUG CONJUGATES AND HYALURONIDASES” (HALOZYME, INC., priority 2024, published 2026).
Like-named read-outs stand apart in the source and are kept apart here. Marks after values point to notes of the source that are not given here.

Legend:
[1] = Post-injection bleb volume, area, height - 3D imaging; assay type: in vivo, Yucatan miniature pig (Sus scrofa domestica); conditions: minipig, 10 mL SC by HVAI, T0; n=3 alone, n=2 with rHuPH20
Description: 3D imaging was applied as a longitudinal methodology to measure post-injection swelling. By obtaining high definition pre- and post-injection 3D images the distances between two registered surfaces can be determined. The camera captures images using a factory calibrated bifocal imaging system to measure distance between surfaces. Surface registration was performed using a multipoint method that utilized common landmarks between the pre-injection image and the post-injection image. Using the proprietary software, the volume, area and height of the post-injection swelling was calculated for each injection (Canfield Biosciences, Inc.).
Assessment of Post-Injection Bleb Shape, Volume, Area and Height (3D Imaging). Pre- and post-injection photographs were taken using a 3D imaging system (Canfield Scientific). This technology permits point-to-point alignment of these two images through multipoint surface registration. The distance between any two points is then represented using a colorimetric surface contour map. […] The color intensity is proportional to the amount of distance measured between images with darker blue color indicating greater distance from the pre-injection image. Out of range measurements (distances greater than 6 mm) are depicted in white. Bleb measurements of volume and height include regions out of range.
These registered pre-/post-injection images were then used to calculate the bleb volume, height, circumference, length, and width for each bleb using proprietary software (Vectra H1 software; Canfield Sciences).

[2] = pig, in vivo
Description: Serum concentrations of total ADC, total antibody and Free Payload (unconjugated SN38) were determined in three separate assays conducted by PPD.
A 20.0-μL sample aliquot was diluted 10-fold. A portion of the diluted sample was taken and processed using an immunoaffinity approach. SMART Digest IA magnetic beads coated with anti-human Fc antibody were used to enrich Trodelvy from matrix. The bound proteins were subjected to “on-bead” proteolysis with trypsin. […] After trypsin digestion, the proteins were further subjected to acidic conditions to release SN-38 from the antibody, which was used for Total ADC quantitation. The following sequences in Table 49 were selected for monitoring in the assay:
VVSV was used for the quantitation of Total Antibody concentrations, DSTY was used for the quantitation of Intact Antibody (trouble shooting purposes only), and SN-38 was used for quantitating Total ADC concentrations.
A nominal unconjugated SN-38, concentration range of […] was chosen to quantitate samples. This assay requires a 50.0 μL porcine serum aliquot. Samples were kept frozen at −80° C. prior to analysis.
A matrix aliquot was fortified with internal standard. Analytes were isolated through protein precipitation. The eluate was evaporated under a nitrogen stream, and the remaining residue reconstituted. Final extracts were analyzed via HPLC MS/MS detection using positive ion electrospray.
Therefore, nominal time points were used for PK analyses. To estimate the serum concentration at time zero for intravenous (IV) data, a second-order polynomial regression was applied to the early serum time points (0.25, 1, and 2 hours). The intercept of the fitted polynomial curve was used as the extrapolated concentration at time zero. Skin concentration data (μg/mL) was normalized to total protein (mg/mL) per sample, resulting in values represented as μg/mg protein.
Pharmacokinetic parameters were calculated using noncompartmental methods performed in Microsoft Excel. The area under the concentration-time curve (AUC) was determined using the linear trapezoidal rule. For serum data, AUC0-7 was calculated using all available time points. For skin data, AUC1-7 was computed based on the three available time point measurements. The maximum observed concentration (Cmax) was identified directly from the dataset, and the time at which it occurred (Tmax) was recorded. All calculations were performed using Microsoft Excel.
Quantitation of total antibody, total ADC, and free payload (SN-38) from Trodelvy in porcine serum and tissue samples was performed via HPLC with MS/MS detection.

[3] = Qualitative assessment of local injection sites (erythema, swelling size, induration); assay type: in vivo, Yucatan miniature pig (Sus scrofa domestica)
Description: The needle was inserted vertically into the marked injection site and the HVAI held in place by hand. Target needle insertion depth was ˜10 mm. Injections were timed using a stopwatch. Upon completion of the injection the needle was removed and the HVAI device discarded. Test solution back-leakage was then absorbed to a tared eye-spear for 30 seconds on the injection site and the weight of the eye spear was measured using an analytical balance. The margins of the injection site bleb were marked with a permanent marker and measured for length, width, and height using a digital caliper and recorded then photographed with the standard and 3D cameras. Caliper measurements and photographs were taken immediately post-injection. Local injection sites were qualitatively assessed and graded daily for erythema severity, swelling size appearance, and firmness, using a scoring system described in Table 4 Table 5, and Table 6, respectively.
Approximately, 24 hours post-dosing of the first injection, each animal was re-anesthetized, and injection sites assessed for erythema, induration and swelling, then photographed and returned to its cage.

[4] = Example 5: post-injection, 10 mL SC by HVAI

For Sacituzumab govitecan [Trodelvy], the “Bleb Area (cm^2), 3D imaging (Mean ± SEM)” value [1] was 30.5 ± 2.9 cm^2, the “Bleb Height (mm), 3D imaging (Mean ± SEM)” value [1] was 7.6 ± 1.2 mm and the “Bleb Volume (mL), 3D imaging (Mean ± SEM)” value [1] was 8.1 ± 0.7 mL. For the same substance, the “Relative difference in serum AUC0-7, Free Payload” value [2] was 59%, the “Relative difference in serum AUC0-7, TAB” value [2] was 76% and the “Relative difference in serum AUC0-7, TADC” value [2] was 34%. The “Relative difference in serum Cmax, Free Payload” value [2] was 38%, the “Relative difference in serum Cmax, TAB” value [2] was 44% and the “Relative difference in serum Cmax, TADC” value [2] was 13%. For the same substance, the “TADC/Free Payload, Tmax” value ([2]; 50 mg) was 100%, the “TADC/TAB, Tmax” value ([2]; 50 mg) was 33% and the “AUC0-7 of free payload” value ([2]; iv) was 0.1252 µg·days/mL. The “AUC0-7 of total ADC (TADC)” value ([2]; iv) was 41.44 µg·days/mL, the “AUC0-7 of total antibody (TAB)” value ([2]; iv) was 193.05 µg·days/mL and the “Cmax of free payload” value ([2]; iv) was 95.3 ng/mL. For the same substance, the “Cmax of total ADC (TADC)” value ([2]; iv) was 60550 ng/mL, the “Cmax of total antibody (TAB)” value ([2]; iv) was 57600 ng/mL and the “Tmax of free payload” value ([2]; iv) was 0 h. For the same substance, the “Tmax of total ADC (TADC)” value ([2]; iv) was 0 h, the “Tmax of total antibody (TAB)” value ([2]; iv) was 0 h and the “Total ADC Result” value ([2]; iv, 50 mg, 6 h) was 43.9 µg/mL. The “Total ADC Result” value ([2]; iv, 50 mg, 24 h) was 10 µg/mL, the “Total ADC Result” value ([2]; iv, 50 mg, 48 h) was 2.27 µg/mL and the “Total ADC Result” value ([2]; iv, 50 mg, 72 h) was 0.751 µg/mL. The “Total ADC Result” value ([2]; iv, 50 mg, 96 h) was less than 0.500 µg/mL, the “Total ADC Result” value ([2]; iv, 50 mg, 168 h) was 0.1 µg/mL and the “serum concentration of total ADC (TADC)” value ([2]; iv, 6 h) was 43.90 µg/mL. For the same substance, the “serum concentration of total ADC (TADC)” value ([2]; iv, 24 h) was 10.00 µg/mL, the “serum concentration of total ADC (TADC)” value ([2]; iv, 48 h) was 2.27 µg/mL and the “serum concentration of total ADC (TADC)” value ([2]; iv, 72 h) was 0.75 µg/mL. For the same substance, the “serum concentration of total ADC (TADC)” value ([2]; iv, 96 h) was <0.50^b μg/mL, the “serum concentration of total ADC (TADC)” value ([2]; iv, 168 h) was 0.10 µg/mL and the “Tmax of free payload” value ([2]; sc) was 24 h. For the same substance, the “serum concentration of total ADC (TADC)” value ([2]; sc, 0 h) was <0.10^b μg/mL, the “serum concentration of total ADC (TADC)” value ([2]; sc, 6 h) was 4.96 µg/mL and the “serum concentration of total ADC (TADC)” value ([2]; sc, 24 h) was 7.87 µg/mL. The “serum concentration of total ADC (TADC)” value ([2]; sc, 48 h) was 2.77 µg/mL, the “serum concentration of total ADC (TADC)” value ([2]; sc, 72 h) was 1.00 µg/mL and the “serum concentration of total ADC (TADC)” value ([2]; sc, 168 h) was 0.13 µg/mL. For the same substance, the “Induration (score)” value [3, 4] was 3.3 ± 0.3, the “Swelling Size (score)” value [3, 4] was 3.1 ± 0.3 and the “Induration at the 24, 48 or 72 hour timepoints” value ([3]; minipig, 10 mL SC by HVAI) was “No induration was detected”. The “Swelling at the 24, 48 or 72 hour timepoints” value ([3]; minipig, 10 mL SC by HVAI) was “No swelling was detected”, the “Swelling Score (Mean ± SEM)” value ([3]; minipig, 10 mL SC by HVAI, immediately post-injection, three evaluators, scale 0-4) was 3.1 ± 0.3 and the “Induration Score (Mean ± SEM)” value ([3]; minipig, 10 mL SC by HVAI, immediately post-injection, two evaluators, scale 0-4) was 3.3 ± 0.3. The “Hardness (induration) of post-injection blebs compared with blebs of the co-mix with rHuPH20” value ([3]; p<0.05, 10 mL SC) was “significantly firmer”.
